Results from US7785631B2, “Solid dose delivery vehicle and methods of making same” (Quadrant Drug Delivery Limited, priority 1994, dated 2010).

Assays:
Type in all cases: physicochemical
[1] = Horseradish peroxidase activity after drying and acetone exposure; conditions: dried with 50% trehalose versus dried without trehalose; FIG. 6A
Description: (§1) A 0.1 mg/ml horseradish peroxidase solution or a 1 mg/ml alkaline phosphatase/4 mg/ml bovine serum albumin solution was dried in an FTS Systems freeze drier with or without 50% trehalose. The drier was used as a vacuum drier and the mixtures dried without freezing. Four times the volume of solvent was added and the solution was allowed to evaporate to dryness. The contents were redissolved in 5 milliliters of water, and enzyme activity was assessed, in serial dilution, by commercial ‘kit’ reagents.

[2] = Alkaline phosphatase activity after drying and acetone exposure; conditions: dried with 50% trehalose versus dried without trehalose; with bovine serum albumin; FIG. 6B
Description: as §1

[3] = Storage of phycoerythrin dried in trehalose at 100° C.; conditions: stored at 100° C. for one month
Description: A 400 μg/ml phycoerythrin solution was freeze-dried in the FTS drier with or without 20% trehalose.

[4] = Exposure of dried phycoerythrin powder to organic solvents, fluorescence; conditions: freeze-dried powder
Description: A 400 μg/ml phycoerythrin solution was freeze-dried in a Labconco freeze-drier with or without 20% trehalose. The dried protein powder was exposed to a number of organic solvents for 72 hrs.

## horseradish peroxidase
[1]
  resistance of enzyme activity to acetone: more resistant to acetone

## alkaline phosphatase
[2]
  resistance of enzyme activity to acetone: more resistant to acetone

## phycoerythrin
[3]
  loss of functional activity on storage: no detectable loss of functional activity
[4]; acetone, 72 hrs
  fluorescence after solvent exposure: remained fluorescent
[4]; acetonitrile, 72 hrs
  fluorescence after solvent exposure: remained fluorescent
[4]; chloroform, 72 hrs
  fluorescence after solvent exposure: remained fluorescent
[4]; dimethylsulfoxide (powder solubilized)
  fluorescence after solvent exposure: remained fluorescent
[4]; methanol, 72 hrs
  fluorescence after solvent exposure: remained fluorescent
[4]; pyridine
  time remained fluorescent: 24 to 48 h
[4]; pyridine, by 72 hrs
  fluorescence after solvent exposure: lost fluorescence
